# Measurements from the supplement of paper PMC10567573.
# B1: CCDC6 (parent)
# chain: TLFKKIQALQKEKETLAVNYEKEE
# Variants of: B1
# Test: protein stability index of a GFP-peptide fusion (GPS, HEK-293T) (PSI 1-6); higher = more stable
# Conditions: c terminus: a fixed tail appended
# 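Note: lentivirally expressed fusions sorted by FACS into six bins by GFP to DsRed ratio, PSI derived from sequencing read proportions per bin multiplied by bin number.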
row,Variant,protein stability index
1,Q10G,3.89
2,E24D,3.45
3,E24C,3.06
4,E24I,2.19
5,E24Y,2.02
6,E24N,2.7
7,E24M,2.34
8,E24S,2.77
9,E24G,2.68
10,E24A,2.79
11,E24H,2.39
12,E24K,2.41
13,E24R,2.1
14,E24L,2.55
15,E24V,2.25
16,Y20S,3.84
17,Y20N,3.57
18,Y20E,4.32
19,Y20I,2.96
20,Y20W,3.26
21,Y20M,2.45
22,Y20V,3.47
23,Y20F,3.06
24,Y20R,3.53

row,Variant,protein stability index
1,Y20Q,4.34
2,Y20P,3.21
3,Y20L,3.45
4,Y20G,3.71
5,Y20H,3.62
6,Y20K,3.68
7,Y20T,3.62
8,Y20A,3.54
9,A8V,4.34
10,A8S,3.47
11,A8Q,3.23
12,A8K,3.88
13,A8G,3.72
14,A8H,3.25
15,A8E,4.05
16,A8R,3.38
17,A8M,2.69
18,A8F,3.54
19,A8I,3.4
20,L16C,3.05
21,L16N,3.6
22,L16K,2.83
23,L16A,3.32
24,L16D,3.88

row,Variant,protein stability index
1,L16M,3.24
2,L16W,1.86
3,L16Y,3.58
4,L16F,2.81
5,L16E,4.07
6,L16P,3.44
7,L16S,4.02
8,T1M,2.51
9,T1A,3.85
10,T1W,1.88
11,T1G,3.73
12,T1C,3.34
13,T1H,3.48
14,T1R,3.04
15,T1D,4.01
16,T1Y,3.01
17,T1E,3.67
18,T1I,2.69
19,T1F,2.64
20,T1P,3.71
21,T1N,4.12
22,K5N,3.78
23,K5M,2.22
24,K5W,3.67

row,Variant,protein stability index
1,K5I,1.79
2,K5R,2.75
3,K5L,2.27
4,K5D,4.85
5,K5S,3.47
6,K5F,1.61
7,K5E,4.27
8,K5Q,3.36
9,K5V,1.76
10,Q7F,2.3
11,Q7D,4.38
12,Q7W,1.99
13,Q7T,3.54
14,Q7C,2.73
15,Q7K,3.31
16,Q7R,2.98
17,Q7A,2.85
18,Q7G,3.51
19,Q7Y,2.55
20,Q7H,3.18
21,Q7V,2.7
22,Q7S,3.65
23,Q7M,2.73
24,Q7N,4.02

row,Variant,protein stability index
1,Q7I,2.6
2,N19R,2.57
3,N19T,3.34
4,N19F,2.18
5,N19K,2.69
6,N19G,3.25
7,N19W,2.11
8,N19I,2.7
9,N19Y,2.33
10,N19M,2.65
11,N19P,3.24
12,N19C,3.14
13,V18S,3.31
14,V18F,2.58
15,V18Q,3.21
16,V18K,3.43
17,V18C,2.95
18,V18Y,2.53
19,V18N,3.63
20,V18R,2.66
21,V18E,3.2
22,V18H,3.62
23,V18P,3.16
24,V18I,3.04

row,Variant,protein stability index
1,V18G,3.15
2,V18W,2.03
3,A17N,2.65
4,A17S,2.71
5,A17E,3.56
6,A17I,2.85
7,A17T,3.18
8,A17P,2.84
9,A17D,3.74
10,A17C,3.39
11,A17M,2.75
12,A17V,2.89
13,A17W,2.16
14,A17Q,3.04
15,A17K,3.41
16,A17H,2.95
17,K13G,3.73
18,K13A,2.58
19,K13D,3.96
20,K13H,2.81
21,K13L,1.93
22,K13I,2.2
23,K13M,2.65
24,K13R,3.49

row,Variant,protein stability index
1,K13V,1.84
2,K13N,3.17
3,K13Q,3.13
4,K13T,3.4
5,K13E,3.78
6,K13P,3.51
7,K13S,3.23
8,K13Y,2.09
9,E23A,2.68
10,E23T,3.02
11,E23F,1.99
12,E23D,3.32
13,E23H,2.93
14,E23I,2.69
15,E23C,2.34
16,E23P,2.25
17,E23M,2.7
18,E23R,2.29
19,E23N,3.14
20,E23Y,2.76
21,E23K,2.68
22,E23V,2.27
23,E23S,2.89
